Experiment [1] has as its target lipoprotein lipase (LPL) originated from a rat fat cell (rat) (UniProt Q06000). Put plainly: cell-based or functional assay.
Experiment [2] concerns the target hepatic triacylglycerol lipase (HTGL) in mouse plasma after administering heparin intravenously (mouse) (UniProt P27656). Put plainly: cell-based or functional assay.
Experiment [3] concerns the target lipoprotein lipase (LPL) in mouse plasma after administering heparin intravenously (mouse) (UniProt P11152). The experiment is described as follows: cell-based or functional assay.
Chain of UniProt P11152 (P11152 28-474 limits assumed): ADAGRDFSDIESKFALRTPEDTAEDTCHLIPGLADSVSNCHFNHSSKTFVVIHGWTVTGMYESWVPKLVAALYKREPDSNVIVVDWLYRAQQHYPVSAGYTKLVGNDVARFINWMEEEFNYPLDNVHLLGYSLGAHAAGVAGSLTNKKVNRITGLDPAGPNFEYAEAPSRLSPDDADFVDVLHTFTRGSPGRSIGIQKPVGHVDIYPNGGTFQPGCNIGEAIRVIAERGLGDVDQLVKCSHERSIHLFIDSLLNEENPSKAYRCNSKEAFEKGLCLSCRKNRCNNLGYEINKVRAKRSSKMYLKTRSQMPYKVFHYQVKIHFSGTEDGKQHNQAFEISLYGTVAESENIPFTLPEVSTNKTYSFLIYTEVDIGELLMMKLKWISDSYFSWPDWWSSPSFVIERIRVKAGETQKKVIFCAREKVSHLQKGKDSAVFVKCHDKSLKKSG
Experiment [4] relates to rat "angiopoietin-related protein 3" gene. The experiment is described as follows: TaqMan PCR quantification of liver angiopoietin-related protein 3 gene expression after bezafibrate in feed. The experiment is classed as in vivo, Zucker fatty rats. The conditions noted are these: 0.3% in F2 powder feed for seven days, compared to the control group, corrected with 18S ribosome. An excerpt:
(§1) For seven days, the antilipemic bezafibrate (manufactured by Sigma) mixed with F2 powder feed (manufactured by Funabashi Noujou) at 0.3% of concentration was administrated to two Zucker fatty rats (purchased from Nihon Charles River) of age 11 weeks.
To the two rats in the control group only F2 powder feed was given. After collecting blood samples from each of the rats under both conditions, the liver thereof was extracted, put in liquid nitrogen immediately to be frozen rapidly, and kept at -80 °C. 5 ml of TRIzol reagent (manufactured by Gibco BRL) were added to 0.1 g of the liver tissue obtained, and it was homogenized on ice using an ultra high-speed homogenizer (Polytoron, manufactured by ckinematica) (at dial 10 for 2 minutes). After incubation for 5 minutes at a room temperature, 1 ml of chloroform was added and mixed vigorously for 15 seconds. […]
A single stranded cDNA was produced according to the following procedures. […] After completion of the reaction, 29 µl of ribonuclease-free purified water was added to each of the samples, and diluted with ribonuclease-free purified water a further 5 times for use in the following quantification. The single-stranded cDNA solution for creation of a calibration-curve was prepared by producing a 5-times serial dilution with ribonuclease-free purified water from the solution for quantification derived from one control sample. […]

Experiment [5] can be described thus: Concentration of neutral fat in blood after bezafibrate in feed. It counts as in vivo, Zucker fatty rats. The conditions noted are these: 0.3% in F2 powder feed for seven days; compared to the control group.
Text: as §1
To the two rats in the control group only F2 powder feed was given. After collecting blood samples from each of the rats under both conditions, the liver thereof was extracted, put in liquid nitrogen immediately to be frozen rapidly, and kept at -80 °C. 5 ml of TRIzol reagent (manufactured by Gibco BRL) were added to 0.1 g of the liver tissue obtained, and it was homogenized on ice using an ultra high-speed homogenizer (Polytoron, manufactured by ckinematica) (at dial 10 for 2 minutes). After incubation for 5 minutes at a room temperature, 1 ml of chloroform was added and mixed vigorously for 15 seconds.

Chain of UniProt P27656 (P27656 22-510 limits assumed): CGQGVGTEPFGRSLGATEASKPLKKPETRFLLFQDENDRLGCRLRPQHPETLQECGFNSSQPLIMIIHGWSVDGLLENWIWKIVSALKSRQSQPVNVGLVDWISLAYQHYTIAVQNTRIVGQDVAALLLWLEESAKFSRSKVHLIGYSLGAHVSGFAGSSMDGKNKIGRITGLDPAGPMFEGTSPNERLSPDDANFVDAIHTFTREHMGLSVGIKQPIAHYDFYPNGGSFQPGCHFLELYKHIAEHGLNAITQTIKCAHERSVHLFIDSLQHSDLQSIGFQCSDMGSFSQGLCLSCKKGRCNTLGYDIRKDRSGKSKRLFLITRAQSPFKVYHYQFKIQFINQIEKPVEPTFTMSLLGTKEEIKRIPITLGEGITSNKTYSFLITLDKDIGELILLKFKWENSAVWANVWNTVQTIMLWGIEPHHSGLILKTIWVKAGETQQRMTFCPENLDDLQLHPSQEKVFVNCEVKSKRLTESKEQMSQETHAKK
Chain of UniProt Q06000 (Q06000 28-474 limits assumed): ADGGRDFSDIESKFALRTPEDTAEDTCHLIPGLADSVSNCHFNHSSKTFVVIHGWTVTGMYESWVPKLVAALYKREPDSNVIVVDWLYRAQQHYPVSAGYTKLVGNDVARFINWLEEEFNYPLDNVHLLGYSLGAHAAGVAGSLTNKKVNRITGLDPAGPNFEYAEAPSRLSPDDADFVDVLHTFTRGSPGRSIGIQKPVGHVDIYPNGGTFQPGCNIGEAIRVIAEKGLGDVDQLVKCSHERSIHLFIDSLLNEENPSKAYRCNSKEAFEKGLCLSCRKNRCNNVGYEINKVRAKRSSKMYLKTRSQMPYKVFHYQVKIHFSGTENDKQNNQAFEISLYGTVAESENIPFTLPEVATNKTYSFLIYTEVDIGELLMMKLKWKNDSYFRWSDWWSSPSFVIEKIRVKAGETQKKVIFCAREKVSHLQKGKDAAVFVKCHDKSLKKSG

With “KhAP5 CC/His (N terminal 207 amino acid partial protein of angiopoietin-related protein 3 with a histidine tag inserted after residue 20) (ligand)”, in experiment [1], the relative value of LPL activity (%) at 0 µg/ml KhAP5 CC/His came out at 100%, the relative value of LPL activity (%) at 1 µg/ml KhAP5 CC/His amounted to 27%, the relative value of LPL activity (%) at 2.5 µg/ml KhAP5 CC/His came out at 21% and the relative value of LPL activity (%) at 5 µg/ml KhAP5 CC/His was found to be 14%. This compound also registered a relative value of LPL activity (%) at 10 µg/ml KhAP5 CC/His in experiment [1] of 11%.

In experiment [1], “human angiopoietin-related protein 3 (polypeptide consisting of amino acid numbers 17-460 of SEQ ID No. 4) (ligand)” had a relative value of LPL activity (%) at 0 µg/ml polypeptide of 100%, a relative value of LPL activity (%) at 1 µg/ml polypeptide of 84%, a relative value of LPL activity (%) at 2.5 µg/ml polypeptide of 64% and a relative value of LPL activity (%) at 5 µg/ml polypeptide of 52%. Also, the relative value of LPL activity (%) at 10 µg/ml polypeptide in experiment [1] turned out to be 29%. Also, in experiment [2], the relative value of HTGL activity (%) at 0 µg/ml polypeptide came to 100%, the relative value of HTGL activity (%) at 1 µg/ml polypeptide came out at 109%, the relative value of HTGL activity (%) at 2.5 µg/ml polypeptide amounted to 94% and the relative value of HTGL activity (%) at 5 µg/ml polypeptide came to 80%. In experiment [2], the relative value of HTGL activity (%) at 10 µg/ml polypeptide stood at 64%. In experiment [3], this compound registered a relative value of LPL activity (%) at 0 µg/ml polypeptide of 100%, a relative value of LPL activity (%) at 1 µg/ml polypeptide of 93%, a relative value of LPL activity (%) at 2.5 µg/ml polypeptide of 82% and a relative value of LPL activity (%) at 5 µg/ml polypeptide of 70%. Further, the relative value of LPL activity (%) at 10 µg/ml polypeptide in experiment [3] was 49%.

On to `CC(C)(Oc1ccc(CCNC(=O)c2ccc(Cl)cc2)cc1)C(=O)O` [bezafibrate], for which the “level of expression of a rat "angiopoietin-related protein 3" gene decreased” value in experiment [4] worked out at 73%. Besides, the “concentration of neutral fat in blood reduced” value in experiment [5] was determined as 50%.

In experiment [1], “GST-ARP4Full (glutathione-S-transferase connected to the amino terminus of amino acid numbers 26-406 of SEQ ID No. 16, angiopoietin related protein 4) (from UniProt P08515 1-218)” returned a relative value of LPL activity (%) at 1 µg/ml GST-ARP4Full (GST 10 µg/ml = 100 %) of 67%, a relative value of LPL activity (%) at 2.5 µg/ml GST-ARP4Full (GST 10 µg/ml = 100 %) of 30%, a relative value of LPL activity (%) at 5 µg/ml GST-ARP4Full (GST 10 µg/ml = 100 %) of 16% and a relative value of LPL activity (%) at 10 µg/ml GST-ARP4Full (GST 10 µg/ml = 100 %) of 5%.

In the case of “GST-ARP4N (glutathione-S-transferase connected to the amino terminus of amino acid numbers 26-143 of SEQ ID No. 16, angiopoietin related protein 4) (from UniProt P08515 1-218)”, in experiment [1], the LPL activity (%) at 1 µg/ml GST-ARP4N (GST 10 µg/ml = 100 %) amounted to 74%, the LPL activity (%) at 2.5 µg/ml GST-ARP4N (GST 10 µg/ml = 100 %) worked out at 61%, the LPL activity (%) at 5 µg/ml GST-ARP4N (GST 10 µg/ml = 100 %) came out at 34% and the LPL activity (%) at 10 µg/ml GST-ARP4N (GST 10 µg/ml = 100 %) came out at 16%.

For the origin of these results see patent EP1403367A1, “METHOD OF TESTING DRUG FOR TREATING OR PREVENTING DISEASES SUCH AS HYPERLIPEMIA” (Sankyo Company Limited, priority 2001, dated 2002).
